The source of these data is patent US20120207676.

The Ki is a dissociation constant, usually derived from enzyme kinetics or from competition with a known ligand. Low values mean a stronger hold on the target, high ones a looser hold on the target. A word on the IC50: it is the concentration at which inhibition is half-maximal.

Sequences and labels used below:
B1: DTPA(In)-NT-20.2 (peptide)
chain: KPRRPYIL
B2: NT-20.2 (peptide)
chain: KPRRPYIL
B3: DTPA(In)-NT-20.1 (peptide)
chain: KPRRPYIL
B4: NT-20.1 (peptide)
chain: KPRRPYIL
B5: DOTA(In)-LB119 (peptide)
chain: KPRRPYIL
B6: DOTA(Ga)-LB119 (peptide)
chain: KPRRPYIL
B7: DOTA(Y)-LB119 (peptide)
chain: KPRRPYIL

T1 sequence (P30989 whole entry): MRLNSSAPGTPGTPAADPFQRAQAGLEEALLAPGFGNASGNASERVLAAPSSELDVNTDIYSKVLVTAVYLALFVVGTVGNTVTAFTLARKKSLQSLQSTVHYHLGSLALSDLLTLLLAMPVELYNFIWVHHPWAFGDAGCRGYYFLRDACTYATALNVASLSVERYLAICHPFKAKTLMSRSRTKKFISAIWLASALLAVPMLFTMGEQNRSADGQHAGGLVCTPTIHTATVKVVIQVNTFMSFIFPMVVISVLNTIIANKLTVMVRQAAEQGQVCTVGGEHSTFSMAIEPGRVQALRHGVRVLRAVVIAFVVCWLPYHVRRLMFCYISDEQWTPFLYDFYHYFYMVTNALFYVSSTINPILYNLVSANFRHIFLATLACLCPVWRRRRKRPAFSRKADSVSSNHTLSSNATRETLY

The first assay concerns the target T1, Neurotensin receptor NTS1 (HT29 cells/membranes) (human), P30989. Put plainly: competition, HT29 membranes. The settings on record: modification not given.
B1: the inhibition constant (Ki) is 1.55 nM.

The molecule B2 gave a Ki of 0.26 nM.

In turn, B3 showed a Ki of 0.66 nM.

As to B4, the inhibition constant Ki stood at 0.072 nM.

The next assay addresses T1, Neurotensin receptor NTS1 (HT29 …). Briefly: competition, HT29 cells. Conditions: modification not given.
Turning to B1, the IC50 was 41.2 nM.

Molecule B2 showed an IC50 of 2.46 nM.

For B3, the IC50 amounted to 6.73 nM.

B4 came in with an IC50 of 0.82 nM.

As to B5, the IC50 was determined as 14.1 nM.

B6 yielded an IC50 of 7.5 nM.

Molecule B7 gave an IC50 of 9.9 nM.
